{
  "source": "patent US20200087347",
  "about": "(published 2020)",
  "assay_in_all_cases": "competition",
  "key": {"integrin αvβ6": {"target": "T1, integrin αvβ6 (human, UniProt P06756)", "T1 chain 1": "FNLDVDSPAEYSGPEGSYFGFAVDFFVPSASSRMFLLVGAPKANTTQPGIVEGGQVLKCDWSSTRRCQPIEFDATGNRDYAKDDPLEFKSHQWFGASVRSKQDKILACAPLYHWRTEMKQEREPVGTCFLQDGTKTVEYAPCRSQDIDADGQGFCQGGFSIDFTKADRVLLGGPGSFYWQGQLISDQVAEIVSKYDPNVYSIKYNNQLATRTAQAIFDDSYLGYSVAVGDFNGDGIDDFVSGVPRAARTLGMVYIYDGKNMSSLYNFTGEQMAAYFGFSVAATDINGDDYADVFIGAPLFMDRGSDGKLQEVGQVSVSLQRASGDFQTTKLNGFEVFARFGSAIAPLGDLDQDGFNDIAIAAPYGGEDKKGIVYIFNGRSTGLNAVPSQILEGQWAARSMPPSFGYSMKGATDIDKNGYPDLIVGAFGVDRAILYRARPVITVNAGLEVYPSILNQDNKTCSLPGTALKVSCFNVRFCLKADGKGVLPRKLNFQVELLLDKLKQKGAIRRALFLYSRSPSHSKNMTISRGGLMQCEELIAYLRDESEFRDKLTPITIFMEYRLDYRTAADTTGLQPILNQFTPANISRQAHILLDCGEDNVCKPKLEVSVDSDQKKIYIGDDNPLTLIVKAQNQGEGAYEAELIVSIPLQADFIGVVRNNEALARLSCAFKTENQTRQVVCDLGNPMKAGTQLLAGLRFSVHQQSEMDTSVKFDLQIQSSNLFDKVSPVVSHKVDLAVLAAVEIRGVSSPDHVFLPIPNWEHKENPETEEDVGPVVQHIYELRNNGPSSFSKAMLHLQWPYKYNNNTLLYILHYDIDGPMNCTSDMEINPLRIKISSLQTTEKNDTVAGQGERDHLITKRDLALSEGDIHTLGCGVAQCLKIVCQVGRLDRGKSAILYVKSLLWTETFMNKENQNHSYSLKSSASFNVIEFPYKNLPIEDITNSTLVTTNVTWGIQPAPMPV", "T1 chain 2": "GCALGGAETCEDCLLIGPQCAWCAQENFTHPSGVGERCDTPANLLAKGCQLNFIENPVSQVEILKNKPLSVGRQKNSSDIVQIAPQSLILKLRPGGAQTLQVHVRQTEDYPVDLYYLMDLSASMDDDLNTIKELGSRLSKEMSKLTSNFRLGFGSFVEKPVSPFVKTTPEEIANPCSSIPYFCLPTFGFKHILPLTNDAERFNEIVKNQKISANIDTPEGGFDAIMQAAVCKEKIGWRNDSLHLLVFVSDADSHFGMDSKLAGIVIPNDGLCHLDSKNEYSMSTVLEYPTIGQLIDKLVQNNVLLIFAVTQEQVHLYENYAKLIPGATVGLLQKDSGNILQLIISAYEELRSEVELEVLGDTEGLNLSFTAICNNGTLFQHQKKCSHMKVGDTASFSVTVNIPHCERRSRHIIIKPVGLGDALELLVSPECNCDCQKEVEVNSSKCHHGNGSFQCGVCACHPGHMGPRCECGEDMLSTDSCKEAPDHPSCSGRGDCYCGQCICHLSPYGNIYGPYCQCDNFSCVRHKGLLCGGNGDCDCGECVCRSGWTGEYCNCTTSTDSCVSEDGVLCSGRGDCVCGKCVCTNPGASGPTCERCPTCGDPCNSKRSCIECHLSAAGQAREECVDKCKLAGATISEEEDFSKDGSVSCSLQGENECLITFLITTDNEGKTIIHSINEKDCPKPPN"}, "integrin αvβ3": {"target": "T2, integrin αvβ3 (human, UniProt P06756)", "T2 chain 1": "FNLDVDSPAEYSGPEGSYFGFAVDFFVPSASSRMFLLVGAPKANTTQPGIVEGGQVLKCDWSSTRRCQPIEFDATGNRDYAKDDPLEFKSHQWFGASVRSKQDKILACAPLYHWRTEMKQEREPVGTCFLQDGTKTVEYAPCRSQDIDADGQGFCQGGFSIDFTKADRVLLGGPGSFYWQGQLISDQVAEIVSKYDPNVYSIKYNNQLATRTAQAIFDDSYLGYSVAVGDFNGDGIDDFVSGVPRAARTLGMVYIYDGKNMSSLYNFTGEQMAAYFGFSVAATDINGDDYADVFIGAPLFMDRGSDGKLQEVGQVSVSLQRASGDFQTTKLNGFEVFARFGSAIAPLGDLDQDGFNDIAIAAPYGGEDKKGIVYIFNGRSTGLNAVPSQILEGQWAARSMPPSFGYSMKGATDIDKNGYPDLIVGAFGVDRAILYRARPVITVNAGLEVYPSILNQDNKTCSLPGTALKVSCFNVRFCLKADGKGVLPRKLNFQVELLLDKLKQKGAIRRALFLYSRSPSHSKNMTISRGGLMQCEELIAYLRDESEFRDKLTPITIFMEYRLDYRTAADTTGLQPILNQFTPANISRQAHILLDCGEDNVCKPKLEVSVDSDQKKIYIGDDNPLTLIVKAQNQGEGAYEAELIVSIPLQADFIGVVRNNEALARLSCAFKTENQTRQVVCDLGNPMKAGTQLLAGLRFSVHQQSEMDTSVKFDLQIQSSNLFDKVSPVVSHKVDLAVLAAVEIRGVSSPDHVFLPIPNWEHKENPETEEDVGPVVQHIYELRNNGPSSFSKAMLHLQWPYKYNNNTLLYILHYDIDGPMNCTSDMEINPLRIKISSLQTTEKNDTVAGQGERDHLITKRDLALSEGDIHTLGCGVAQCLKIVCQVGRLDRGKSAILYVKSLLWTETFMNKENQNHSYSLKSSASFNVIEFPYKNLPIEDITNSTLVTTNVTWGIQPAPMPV", "T2 chain 2": "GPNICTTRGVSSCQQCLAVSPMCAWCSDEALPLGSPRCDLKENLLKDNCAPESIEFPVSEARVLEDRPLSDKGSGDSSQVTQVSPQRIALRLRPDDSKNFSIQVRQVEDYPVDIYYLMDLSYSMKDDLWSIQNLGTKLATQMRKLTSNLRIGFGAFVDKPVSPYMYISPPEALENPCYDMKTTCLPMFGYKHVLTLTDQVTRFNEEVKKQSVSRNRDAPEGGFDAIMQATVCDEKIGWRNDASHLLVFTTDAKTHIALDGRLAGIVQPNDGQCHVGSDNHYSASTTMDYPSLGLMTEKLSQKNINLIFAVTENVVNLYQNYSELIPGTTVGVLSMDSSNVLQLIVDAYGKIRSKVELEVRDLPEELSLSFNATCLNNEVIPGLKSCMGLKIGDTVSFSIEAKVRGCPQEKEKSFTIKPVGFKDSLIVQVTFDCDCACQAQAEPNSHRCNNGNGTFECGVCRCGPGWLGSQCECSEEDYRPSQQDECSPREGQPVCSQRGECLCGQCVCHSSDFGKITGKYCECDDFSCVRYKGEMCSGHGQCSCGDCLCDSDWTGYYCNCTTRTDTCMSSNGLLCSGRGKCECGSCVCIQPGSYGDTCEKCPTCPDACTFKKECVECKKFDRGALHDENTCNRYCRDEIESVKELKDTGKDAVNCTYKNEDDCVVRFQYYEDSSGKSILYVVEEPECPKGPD"}, "integrin αIIbβ3": {"target": "integrin αIIbβ3 (human, UniProt P08514)"}, "integrin αvβ5": {"target": "T3, integrin αvβ5 (human, UniProt P06756)", "T3 chain 1": "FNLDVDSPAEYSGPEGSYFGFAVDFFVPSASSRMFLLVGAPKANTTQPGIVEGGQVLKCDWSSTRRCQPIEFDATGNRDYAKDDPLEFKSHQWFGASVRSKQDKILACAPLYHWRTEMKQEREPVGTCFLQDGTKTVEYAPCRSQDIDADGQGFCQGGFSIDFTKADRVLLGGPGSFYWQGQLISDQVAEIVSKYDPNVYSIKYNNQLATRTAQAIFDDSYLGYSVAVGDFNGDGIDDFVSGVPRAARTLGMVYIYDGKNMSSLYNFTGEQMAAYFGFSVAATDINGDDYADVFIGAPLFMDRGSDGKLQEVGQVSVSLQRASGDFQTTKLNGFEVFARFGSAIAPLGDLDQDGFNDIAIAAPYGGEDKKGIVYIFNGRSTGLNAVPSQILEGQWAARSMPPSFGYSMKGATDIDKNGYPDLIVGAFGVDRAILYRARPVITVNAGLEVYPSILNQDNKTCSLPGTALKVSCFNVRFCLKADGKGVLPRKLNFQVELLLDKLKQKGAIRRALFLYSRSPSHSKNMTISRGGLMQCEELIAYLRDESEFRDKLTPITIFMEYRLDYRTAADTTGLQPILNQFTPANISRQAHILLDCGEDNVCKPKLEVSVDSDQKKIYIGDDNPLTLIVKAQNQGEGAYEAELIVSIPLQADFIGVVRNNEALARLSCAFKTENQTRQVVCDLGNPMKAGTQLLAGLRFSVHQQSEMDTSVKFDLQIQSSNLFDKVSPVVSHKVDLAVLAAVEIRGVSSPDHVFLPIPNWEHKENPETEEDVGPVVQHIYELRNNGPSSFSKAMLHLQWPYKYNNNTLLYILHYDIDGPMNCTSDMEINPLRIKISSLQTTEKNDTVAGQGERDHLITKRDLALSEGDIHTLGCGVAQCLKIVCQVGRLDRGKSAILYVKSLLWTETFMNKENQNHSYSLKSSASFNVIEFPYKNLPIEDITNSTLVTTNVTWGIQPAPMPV", "T3 chain 2": "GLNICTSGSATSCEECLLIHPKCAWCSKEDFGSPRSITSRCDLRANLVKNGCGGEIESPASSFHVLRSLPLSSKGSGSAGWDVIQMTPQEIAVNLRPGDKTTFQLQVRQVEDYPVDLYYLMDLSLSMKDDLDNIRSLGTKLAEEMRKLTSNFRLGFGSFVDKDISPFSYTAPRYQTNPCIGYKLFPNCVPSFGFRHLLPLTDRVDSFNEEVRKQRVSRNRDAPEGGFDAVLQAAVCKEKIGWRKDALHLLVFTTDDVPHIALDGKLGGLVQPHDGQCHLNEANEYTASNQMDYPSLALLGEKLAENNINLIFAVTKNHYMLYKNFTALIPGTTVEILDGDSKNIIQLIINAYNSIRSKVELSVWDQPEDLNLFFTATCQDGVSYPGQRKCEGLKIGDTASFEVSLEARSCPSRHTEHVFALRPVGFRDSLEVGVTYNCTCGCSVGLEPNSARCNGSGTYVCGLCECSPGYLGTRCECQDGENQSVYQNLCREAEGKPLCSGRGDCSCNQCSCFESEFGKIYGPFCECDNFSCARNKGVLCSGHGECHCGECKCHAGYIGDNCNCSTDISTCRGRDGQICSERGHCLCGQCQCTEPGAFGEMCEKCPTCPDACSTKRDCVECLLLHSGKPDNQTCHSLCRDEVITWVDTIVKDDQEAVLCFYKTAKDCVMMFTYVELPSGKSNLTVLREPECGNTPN"}, "integrin α5β1": {"target": "integrin α5β1 (human, UniProt P08648)", "sequence (P08648 42-1049, chain 1 of 2)": "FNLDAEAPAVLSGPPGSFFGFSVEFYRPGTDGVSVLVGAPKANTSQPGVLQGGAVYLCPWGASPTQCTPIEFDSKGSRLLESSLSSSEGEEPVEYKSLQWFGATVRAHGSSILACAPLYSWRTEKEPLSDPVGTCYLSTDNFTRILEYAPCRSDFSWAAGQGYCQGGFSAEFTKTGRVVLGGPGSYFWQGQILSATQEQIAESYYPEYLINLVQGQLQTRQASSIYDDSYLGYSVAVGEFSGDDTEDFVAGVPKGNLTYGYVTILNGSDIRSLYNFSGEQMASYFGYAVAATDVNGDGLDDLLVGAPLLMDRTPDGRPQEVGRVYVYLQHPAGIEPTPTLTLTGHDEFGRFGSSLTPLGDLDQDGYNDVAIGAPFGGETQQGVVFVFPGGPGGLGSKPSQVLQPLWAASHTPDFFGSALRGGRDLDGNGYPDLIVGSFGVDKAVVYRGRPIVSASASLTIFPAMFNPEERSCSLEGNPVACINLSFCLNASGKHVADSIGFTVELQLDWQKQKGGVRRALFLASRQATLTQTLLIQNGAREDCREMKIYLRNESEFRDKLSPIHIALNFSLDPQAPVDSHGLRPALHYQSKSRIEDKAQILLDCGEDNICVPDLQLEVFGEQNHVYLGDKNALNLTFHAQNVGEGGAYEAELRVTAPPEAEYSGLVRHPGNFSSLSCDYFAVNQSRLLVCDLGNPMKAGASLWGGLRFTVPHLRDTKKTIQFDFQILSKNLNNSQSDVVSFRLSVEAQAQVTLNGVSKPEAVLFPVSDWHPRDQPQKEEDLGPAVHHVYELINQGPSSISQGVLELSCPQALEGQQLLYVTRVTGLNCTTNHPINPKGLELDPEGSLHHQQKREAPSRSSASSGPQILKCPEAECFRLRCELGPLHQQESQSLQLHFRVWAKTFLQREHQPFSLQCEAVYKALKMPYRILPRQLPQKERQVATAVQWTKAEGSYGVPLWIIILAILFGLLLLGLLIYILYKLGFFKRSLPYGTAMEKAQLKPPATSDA", "sequence (chain, as listed by the source, chain 2 of 2)": "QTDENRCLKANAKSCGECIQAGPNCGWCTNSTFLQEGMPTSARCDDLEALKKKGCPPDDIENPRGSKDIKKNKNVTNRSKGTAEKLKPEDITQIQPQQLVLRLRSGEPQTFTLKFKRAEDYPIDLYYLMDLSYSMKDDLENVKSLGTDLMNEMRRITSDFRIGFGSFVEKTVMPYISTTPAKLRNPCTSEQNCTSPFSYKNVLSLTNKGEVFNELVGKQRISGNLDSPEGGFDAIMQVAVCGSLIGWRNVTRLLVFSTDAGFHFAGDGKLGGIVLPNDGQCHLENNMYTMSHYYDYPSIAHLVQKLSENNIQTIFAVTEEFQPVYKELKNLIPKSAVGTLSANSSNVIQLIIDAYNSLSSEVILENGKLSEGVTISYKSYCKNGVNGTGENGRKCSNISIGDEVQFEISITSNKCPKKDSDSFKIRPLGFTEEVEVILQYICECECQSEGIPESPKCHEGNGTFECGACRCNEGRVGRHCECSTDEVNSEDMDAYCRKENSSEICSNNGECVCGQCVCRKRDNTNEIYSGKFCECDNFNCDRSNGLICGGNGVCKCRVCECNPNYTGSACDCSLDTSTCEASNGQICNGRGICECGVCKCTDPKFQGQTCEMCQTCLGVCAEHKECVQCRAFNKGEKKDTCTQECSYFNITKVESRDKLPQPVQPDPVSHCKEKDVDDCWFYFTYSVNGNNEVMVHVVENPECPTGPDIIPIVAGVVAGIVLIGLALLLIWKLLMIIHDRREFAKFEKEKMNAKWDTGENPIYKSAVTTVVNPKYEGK"}, "integrin αvβ8": {"target": "T4, integrin αvβ8 (human, UniProt P06756)", "T4 chain 1": "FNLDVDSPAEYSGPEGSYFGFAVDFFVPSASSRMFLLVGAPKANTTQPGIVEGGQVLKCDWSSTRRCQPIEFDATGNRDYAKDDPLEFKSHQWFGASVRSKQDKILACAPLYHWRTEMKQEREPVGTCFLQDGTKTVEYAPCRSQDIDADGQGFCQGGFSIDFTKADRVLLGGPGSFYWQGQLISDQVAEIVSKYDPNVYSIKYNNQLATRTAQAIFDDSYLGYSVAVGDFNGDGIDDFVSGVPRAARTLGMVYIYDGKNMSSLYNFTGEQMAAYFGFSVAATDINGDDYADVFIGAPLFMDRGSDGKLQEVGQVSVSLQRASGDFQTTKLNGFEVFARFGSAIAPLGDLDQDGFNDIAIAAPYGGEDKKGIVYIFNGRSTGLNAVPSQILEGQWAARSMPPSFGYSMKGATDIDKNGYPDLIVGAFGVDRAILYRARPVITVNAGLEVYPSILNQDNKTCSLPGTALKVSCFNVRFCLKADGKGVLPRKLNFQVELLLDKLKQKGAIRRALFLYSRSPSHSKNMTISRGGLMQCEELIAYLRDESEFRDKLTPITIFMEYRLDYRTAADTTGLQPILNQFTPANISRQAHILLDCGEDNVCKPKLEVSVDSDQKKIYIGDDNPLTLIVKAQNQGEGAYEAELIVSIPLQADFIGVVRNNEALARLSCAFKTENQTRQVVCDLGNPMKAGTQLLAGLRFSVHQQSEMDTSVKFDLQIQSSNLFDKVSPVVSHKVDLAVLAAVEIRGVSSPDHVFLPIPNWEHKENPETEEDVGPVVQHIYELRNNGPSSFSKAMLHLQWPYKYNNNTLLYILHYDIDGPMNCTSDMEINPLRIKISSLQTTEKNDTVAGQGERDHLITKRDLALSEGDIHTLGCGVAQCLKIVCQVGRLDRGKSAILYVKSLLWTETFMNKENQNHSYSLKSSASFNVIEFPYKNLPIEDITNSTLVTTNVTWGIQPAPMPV", "T4 chain 2": "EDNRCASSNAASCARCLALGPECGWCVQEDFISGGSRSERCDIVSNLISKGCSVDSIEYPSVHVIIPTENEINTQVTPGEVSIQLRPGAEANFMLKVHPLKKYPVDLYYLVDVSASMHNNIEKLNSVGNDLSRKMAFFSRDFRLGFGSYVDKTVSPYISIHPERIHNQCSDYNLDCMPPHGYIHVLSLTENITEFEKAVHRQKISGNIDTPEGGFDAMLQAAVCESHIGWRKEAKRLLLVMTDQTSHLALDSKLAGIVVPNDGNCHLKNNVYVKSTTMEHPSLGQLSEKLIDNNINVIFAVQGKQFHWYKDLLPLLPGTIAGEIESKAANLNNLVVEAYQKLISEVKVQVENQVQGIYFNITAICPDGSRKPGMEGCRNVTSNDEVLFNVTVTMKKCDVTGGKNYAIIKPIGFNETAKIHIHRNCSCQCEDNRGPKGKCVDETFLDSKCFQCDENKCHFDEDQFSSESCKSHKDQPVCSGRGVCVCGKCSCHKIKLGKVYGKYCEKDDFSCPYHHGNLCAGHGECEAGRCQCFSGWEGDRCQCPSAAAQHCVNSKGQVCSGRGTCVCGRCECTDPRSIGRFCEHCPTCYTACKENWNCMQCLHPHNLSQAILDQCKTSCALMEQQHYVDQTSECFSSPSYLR"}},
  "note": "[ ]: non-standard residue; d: D form.",
  "data": [
    {"binder": "cyclo(RGDL[dP]PGL)", "note": "[Compound 2]", "values": [
      {"measurement": "IC50", "setting": "integrin αvβ6", "result": 210, "unit": "nM"},
      {"measurement": "IC50", "setting": "integrin αvβ3", "result": "> 1000", "unit": "nM"},
      {"measurement": "IC50", "setting": "integrin αIIbβ3", "result": "> 1000", "unit": "nM"},
      {"measurement": "IC50", "setting": "integrin αvβ5", "result": "> 1000", "unit": "nM"},
      {"measurement": "IC50", "setting": "integrin α5β1", "result": "> 1000", "unit": "nM"},
      {"measurement": "IC50", "setting": "integrin αvβ8", "result": 0.93, "unit": "nM"}
    ]}
  ]
}
